Data set [1] has as its target T1, Botulinum neurotoxin type A (Xeomin) (Clostridium botulinum serotype A, UniProt P0DPI1 2-1296). Nature of the data set: BLI. The following applies: protein: commercial.
T1 sequence (P0DPI1 2-1296): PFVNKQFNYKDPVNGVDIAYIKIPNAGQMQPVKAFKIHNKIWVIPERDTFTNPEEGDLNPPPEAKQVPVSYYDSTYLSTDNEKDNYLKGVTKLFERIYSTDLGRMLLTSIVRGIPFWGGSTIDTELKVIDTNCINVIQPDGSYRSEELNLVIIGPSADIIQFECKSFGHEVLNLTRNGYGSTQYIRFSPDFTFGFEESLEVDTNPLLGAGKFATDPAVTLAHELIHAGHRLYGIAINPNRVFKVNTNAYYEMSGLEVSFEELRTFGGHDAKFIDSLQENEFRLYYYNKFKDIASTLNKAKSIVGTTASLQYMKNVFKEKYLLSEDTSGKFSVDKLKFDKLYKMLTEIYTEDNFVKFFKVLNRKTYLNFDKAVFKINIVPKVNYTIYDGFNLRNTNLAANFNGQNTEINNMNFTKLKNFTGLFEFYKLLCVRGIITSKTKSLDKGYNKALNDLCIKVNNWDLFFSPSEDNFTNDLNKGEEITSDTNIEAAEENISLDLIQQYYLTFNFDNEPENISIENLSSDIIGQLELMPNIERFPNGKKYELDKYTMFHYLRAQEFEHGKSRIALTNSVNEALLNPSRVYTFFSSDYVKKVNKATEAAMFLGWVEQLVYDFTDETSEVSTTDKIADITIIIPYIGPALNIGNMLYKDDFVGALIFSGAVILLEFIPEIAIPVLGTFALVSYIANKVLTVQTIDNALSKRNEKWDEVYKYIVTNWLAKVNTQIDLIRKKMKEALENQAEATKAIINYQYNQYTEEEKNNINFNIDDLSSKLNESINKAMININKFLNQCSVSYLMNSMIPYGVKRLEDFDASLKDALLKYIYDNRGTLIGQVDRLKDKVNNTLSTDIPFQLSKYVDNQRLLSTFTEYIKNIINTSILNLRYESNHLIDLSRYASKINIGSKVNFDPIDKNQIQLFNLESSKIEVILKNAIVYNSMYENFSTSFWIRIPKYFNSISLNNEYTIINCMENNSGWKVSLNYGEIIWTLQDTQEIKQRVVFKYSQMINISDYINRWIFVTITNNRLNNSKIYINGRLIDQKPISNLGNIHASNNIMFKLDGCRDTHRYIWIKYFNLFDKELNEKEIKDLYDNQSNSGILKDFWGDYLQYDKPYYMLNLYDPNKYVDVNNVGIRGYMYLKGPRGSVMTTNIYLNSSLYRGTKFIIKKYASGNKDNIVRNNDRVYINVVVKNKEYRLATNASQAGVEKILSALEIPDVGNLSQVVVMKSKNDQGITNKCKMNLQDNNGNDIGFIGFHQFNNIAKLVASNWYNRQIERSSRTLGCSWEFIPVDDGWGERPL
Data set [2] deals with Botulinum neurotoxin type A (Xeomin) (Clostridium botulinum serotype A, UniProt P0DPI1 2-1296). Nature of the data set: SERS aptasensor. The following applies: protein: commercial; label: 3' TAMRA.
Target sequence in this assay (P0DPI1 2-1296): as above
The target in data set [3] is T1, Botulinum neurotoxin type A (Xeomin).

Where two headings read alike, the source gives them in different places.

B1: Apt_2.22 (structured_DNA)
DNA: ATACCAGCTTATTCAATTGACATGACTGGGATTTTTGGCGAAATCGAAGGAAGCGGAGAGATAGTAAGTGCAATCT
For orientation: Kd means the concentration at which binding is half-saturated. Read a low Kd as a tighter complex. B1 returned a Kd in data set [1] of 7 ± 4 nM.

B2: Apt_2.22_mod (structured_DNA)
DNA: ATACCAGCTTATTCAATTGACATGACTGGGATTTTTGGCGAAATCGAAGGAAGCGGAGAGATAGTAAGTGCAATCT
modifications: 5' SH-(CH2)6
As to B2, the binding result in data set [2] is reported as “binds”.

B3: SH-H8-TAMRA (ssDNA)
DNA: AGTGCGGTGAGCCGTCGGACATACAAATAC
Consider B3, for which, in data set [3], the binding result is reported as “no binding”.

Values taken from article PMC10535226, “Rapid SERS Detection of Botulinum Neurotoxin Type A”.
